According to patent US20160053277A1, “Compositions Having Dicamba Decarboxylase Activity and Methods of Use” (PIONEER HI-BRED INTERNATIONAL, INC., priority 2013, published 2016):

Tests used:
[1] = Shuffled variant libraries: 14CO2 capturing assay in 384-well format; conditions: decarboxylation activity (carbon dioxide released) compared with unmutated backbone protein SEQ ID NO 133 (DDEC0201)
[2] = Saturation mutagenesis of SEQ ID NO:109: dicamba decarboxylation activity of point mutants (carbon dioxide released); conditions: decarboxylation activity (carbon dioxide released) of point mutant compared with unmutated backbone protein; backbone SEQ ID NO: 109

B1: 150 (protein)
chain: MAQGKVALEEHFAIPETLQDSAGFVPGDYWKELQHRLLDIQDTRLKLMDAHGIETMILSLAAPAVQAIPDRRKAIEIARRANDFLAEECAKRPDRFLAFAALPLQDPDAATEELQRTVNDLGFVGALVNGFSQEGDGQTPLYYDLPQYRPFWGEVEKLDVPFYLHPRNPLPQDSRIYDGHPWLLGPTWAFAQETAVHALRLMASGLFDEHPRLNIILGHMGEGLPYMMYRIDHRIAWVKLPPRYPAKRRFMDYFNENFHITTSGNFRTQTLIDAILEIGADRILFSTDWPFENIDHAADWFNATSIAEADRVKIGRTNARRLFKLDGD
modifications: Dicamba decarboxylase variant
Fold Activity [1]: 1.1 | Fold Activity [2]: 1.4

B2: 152 (protein)
chain: MAQGKVALEEHFAIPETLQDSAGFVPGDYWKELQHRLLDIQDTRLKLMDAHGIETMILSLAAPAVQAIPDRRKAIEIARRANDFLAEECAKRPDRFLAFAALPLQDPDAATEELQRCVNDLGFVGALVNGFSVEGDGQTPLYYDLPQYRPFWGEVEKLDVPFYLHPRNPLPQDSRIYDGHPWLLGPTWAFAQETAVHALRLMASGLFDEHPRLNIILGHMGEGLPYMMYRIDHRIAWVKLPPRYPAKRRFMDYFNENFHITTSGNFRTQTLIDAILEIGADRILFSTDWPFENIDHAADWFNATSIAEADRVKIGRTNARRLFKLDGA
modifications: Dicamba decarboxylase variant
Fold Activity [1]: 1.1 | Fold Activity [2]: 1.8

B3: 153 (protein)
chain: MAQGKVALEEHFAIPETLQDSAGFVPSEYLKELQHRLLDIQDTRLKLMDAHGIETMILSLAAPAVQAIPDRRKAIEIARRANDFLAEECAKRPDRFLAFAALPLQDVDAATEELQRCVNDLGFVGALVNGFSVEGDGQTPLYYDLPQYRPFWGEVEKLDVPFYLHPRNPLPQDSRIYDGHPWLLGPTWAFAQETAVHALRLMASGLFDEHPRLNIILGHLGEGLPYMMYRIDHRIAWVKLPPRYPAKRRFMDYFNENFHITTSGNFRTQTLIDAILEIGADRILFSTDWPFENIDHAADWFNATSIAEADRLKIGRTNARRLFKLDGD
modifications: Dicamba decarboxylase variant
Fold Activity [1]: 1.8 | Fold Activity [2]: 1.7

B4: 158 (protein)
chain: MAQGKVALEEHFAIPETLNDSAGFVPGDYWKELQHRLLDIQDTRLKLMDAHGIETMILSLAAPAVQAIPDRRKAIEIARRANDFLAEECAKRPDRFLAFAALPLQDPDAATEELQRCVNDLGFVGALVNGFSQEGDGQTPLYYDLPQYRPFWGEVEKLDVPFYLHPRNPLPQDSRIYDGHPWLLGPTWAFAQETAVHALRLMASGLFDEHPRLNIILGHMGEGLPYMMYRIDHRIAWVKLPPRYPAKRRFMDYFNENFHITTSGNFRTQTLIDAILEIGADRILFSTDWPFENIDHATAWFNATSIAEADRVKIGRTNARRLFKLDGA
modifications: Dicamba decarboxylase variant
Fold Activity [1]: 1.0 | Fold Activity [2]: 1.6

B5: 201 (protein)
chain: MAQGKVALEEHFAIPETLQDSAGFVPGDYWKELQHRLLDIQDTRLKLMDAHGIETMILSLAAPAVQAIPDRRKAIEIARRANDFLAEECAKRPDRFLAFAALPLQDPDAATEELQRCVNDLGFVGALVNGFSVEGDGQTPLYYDLPQYRPFWGEVEKLDVPFYLHPRNPLPQDSRIYAGHPWLLGPTWAFAQETAVHALRLMASGLFDEHPRLNIILGHLGEGLPYMMYRIDHRIAWVKLPPRYPAKRRFMDYFNENFHITTSGNFRTQTLIDAILEIGADRILFSTDWPFENIDHAADWFNATSIAEADRVKIGRTNARRLFKLDGD
modifications: Dicamba decarboxylase variant
Fold Activity [1]: 1.5 | Fold Activity [2]: 1.2

B6: 151 (protein)
chain: MAQGKVALEEHFAIPETLQDSAGFVPGDYWKELQHRLLDIQDTRLKLMDAHGIETMILSLAAPAVQAIPDRRKAIEIARRANDFLAEECAKRPDRFLAFAALPLQDPDAATEELQRCVNDLGFVGALVNGFSQEGDGQTPLYYDLPQYRPFWGEVEKLDVPFYLHPRNPLPQDSRIYDGHPWLLGPTWAFAQETAVHALRLMASGLFDEHPRLNIILGHMGEGLPYMMYRIDHRIAWVHQPPRYPAKRRFMDYFNENFHITTSGNFRTQTLIDAILEIGADRILFSTDWPFENIDHAADWFNATSIAEADRVKIGRTNARRLFKLDGD
modifications: Dicamba decarboxylase variant
Fold Activity [1]: 1.0 | Fold Activity [2]: 1.9

B7: 155 (protein)
chain: MAQGKVALEEHFAIPETLQDSAGFVPGDYWKELQHRLLDIQDTRLKLMDAHGIETMILSLAAPAVQAIPDRRKAIEIARRANDFLAEECAKRPDRFLAFAALPLQDPDAATEELQRCVNDLGFVGALVNGFSVEGDGQTPLYYDLPQYRPFWGEVEKLDVPFYLHPRNPLPQDSRIYDGHPWLLGPTWAFAQETAVHALRLMASGLFDEHPRLNIILGHLGEGLPYMMYRIDHRIAWVHEPPRYPAKRRFMDYFNENFHITTSGNFRTQTLIDAILEIGADRILFSTDWPFENIDHAADWFNATSIAEADRLKIGRTNARRLFKLDGA
modifications: Dicamba decarboxylase variant
Fold Activity [1]: 1.2 | Fold Activity [2]: 1.5

B8: 159 (protein)
chain: MAQGKVALEEHFAIPETLQDSAGFVPGDYWKELQHRLLDIQDTRLKLMDAHGIETMILSLAAPAVQAIPDRRKAIEIARRANDFLAEECAKRPDRFLAFAALPLQDPDAATEELQRCVNDLGFVGALVNGFSVEGDGQTPLYYDLPQYRPFWGEVEKLDVPFYLHPRNPLPQDSRIYDGHPWLLGPTWAFAQETAVHALRLMASGLFDEHPRLNIILGHLGEGLPYMMYRIDHRIAWVKLPPRYPAKRRFMDYFNENFHITTSGNFRTQTLIDAILEIGADRILFSTDWPFENIDHAADWFNATSIAEADRVKIGRTNARRLFKLDGA
modifications: Dicamba decarboxylase variant
Fold Activity [1]: 1.0 | Fold Activity [2]: 1.5

B9: 157 (protein)
chain: MAQGKVALEEHFAIPETLQDSAGFVPGDYWKELQHRLLDIQDTRLKLMDAHGIETMILSLAAPAVQAIPDRRKAIEIARRANDFLAEECAKRPDRFLAFAALPLQDPAAATEELQRCVNDLGFVGALVNGFSVEGDGQTPLYYDLPQYRPFWGEVEKLDVPFYLHPRNPLPQDSRIYDGHPWLLGPTWAFAQETAVHALRLMASGLFDEHPRLNIILGHMGEGLPYMMYRIDHRIAWVHEPPRYPAKRRFMDYFNENFHITTSGNFRTQTLIDAILEIGADRILFSTDWPFENIDHAADWFNATSIAEADRLKIGRTNARRLFKLDGD
modifications: Dicamba decarboxylase variant
Fold Activity [1]: 1.2 | Fold Activity [2]: 1.4

B10: 162 (protein)
chain: MAQGKVALEEHFAIPETLQDSAGFVPGDYWKELQHRLLDIQDTRLKLMDAHGIETMILSLAAPAVQAIPDRRKAIEIARRANDFLAEECAKRPDRFLAFAALPMQDVDAATEELQRCVNTLGFVGALVNGFSVEGDGQTPLYYDLPQYRPFWGEVEKLDVPFYLHPRNPLPQDSRIYDGHPWLLGPTWAFAQETAVHALRLMASGLFDEHPRLNIILGHLGEGLPYMMYRIDHRIAWVKLPPRYPAKRRFMDYFNENFHITTSGNFRTQTLIDAILEIGADRILFSTDWPFENIDHAADWFNATSIAEADRVKIGRTNARRLFKLDGA
modifications: Dicamba decarboxylase variant
Fold Activity [1]: 1.0 | Fold Activity [2]: 1.4

B11: 154 (protein)
chain: MAQGKVALEEHFAIPETLQDSAGFVPGDYWKELQHRLLDIQDTRLKLMDAHGIETMILSLAAPAVQAIPDRHKAIEIARRANDFLAEECAKRPDRFLAFAALPLQDPDAATEELQRTVNDLGFVGALVNGFSQEGDGQTPLYYDLPQYRPFWGEVEKLDVPFYLHPRNPLPQDSRIYDGHPWLLGPTWAFAQETAVHALRLMASGLFDEHPRLNIILGHMGEGLPYMMYRIDHRIAWVHEPPRYPAKRRFMDYFNENFHITTSGNFRTQTLIDAILEIGADRILFSTDWPFENIDHAADWFNATSIAEADRVKIGRTNARRLFKLDGD
modifications: Dicamba decarboxylase variant
Fold Activity [1]: 1.3 | Fold Activity [2]: 1.3

B12: 160 (protein)
chain: MAQGKVALEEHFAIPETLQDSAGFVPGDYWKELQHRLLDIQDTRLKLMDAHGIETMILSLAAPAVQAIPDRRKAIEIARRANDFLAEECAKRPDRFLAFAALPLQDPDAATEELQRCVNTLGFVGALVNGFSQEGDGQTPLYYDLPQYRPFWGEVEKLDVPFYLHPRNPLPQDSRIYDGHPWLLGPTWAFAQETAVHALRLMASGLFDEHPRLNIILGHMGEGLPYMMYRIDHRIAWVKLPPRYPAKRRFMDYFNENFHITTSGNFRTQTLIDAILEIGADRILFSTDWPFENIDHAADWFNATSIAEADRVKIGRTNARRLFKLDGD
modifications: Dicamba decarboxylase variant
Fold Activity [1]: 1.1 | Fold Activity [2]: 1.7

B13: 161 (protein)
chain: MAQGKVALEEHFAIPETLQDSAGFVPGDYWKELQHRLLDIQDTRLKLMDAHGIETMILSLAAPAVQAIPDRRKAIEIARRANDFLAEECAKRPDRFLAFAALPLQDPDAATEELQRCVNDLGFVGALVNGFSVEGDGQTPLYYDLPQYRPFWGEVEKLDVPFYLHPRNPLPQDSRIYDGHPWLLGPTWAFAQETAVHALRLMASGLFDEHPRLNIILGHMGEGLPYMMYRIDHRIAWVKLPPRYPAKRRFMDYFNENFHITTSGNFRTQTLIDAILEIGADRILFSTDWPFENIDHATAWFNATSIAEADRVKIGRTNARRLFKLDGD
modifications: Dicamba decarboxylase variant
Fold Activity [1]: 1.1 | Fold Activity [2]: 1.5

B14: 156 (protein)
chain: MAQGKVALEEHFAIPETLQDSAGFVPSDYLKELQHRLLDIQDTRLKLMDAHGIETMILSLAAPAVQAIPDRRKAIEIARRANDFLAEECAKRPDRFLAFAALPMQDPDAATEELQRCVNDLGFVGALVNGFSVEGDGQTPLYYDLPQYRPFWGEVEKLDVPFYLHPRNPLPQDSRIYDGHPWLLGPTWAFAQETAVHALRLMASGLFDEHPRLNIILGHLGEGLPYMMYRIDHRIAWVHEPPRYPAKRRFMDYFNENFHITTSGNFRTQTLIDAILEIGADRILFSTDWPFENIDHAADWFNATSIAEADRLKIGRTNARRLFKLDGA
modifications: Dicamba decarboxylase variant
Fold Activity [1]: 1.5 | Fold Activity [2]: 1.5
